Columns and labels:
Test in all cases: cell-based or functional assay
[1] = molecular target: COX6A2-nanoluc-alfa-tag-fusion
[2] = molecular target: T1, LYRM7-nanoluc-alfa-tag-fusion
T1 chain: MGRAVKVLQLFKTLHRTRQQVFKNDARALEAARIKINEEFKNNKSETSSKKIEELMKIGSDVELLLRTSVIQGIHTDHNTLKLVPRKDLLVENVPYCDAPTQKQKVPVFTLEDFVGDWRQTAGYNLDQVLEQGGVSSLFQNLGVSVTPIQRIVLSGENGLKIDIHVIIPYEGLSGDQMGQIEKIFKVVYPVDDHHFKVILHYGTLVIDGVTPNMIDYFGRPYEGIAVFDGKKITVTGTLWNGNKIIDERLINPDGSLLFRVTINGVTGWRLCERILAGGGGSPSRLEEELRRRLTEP

[3] = molecular target: T2, UQCC2-nanoluc-alfa-tag-fusion
T2 chain: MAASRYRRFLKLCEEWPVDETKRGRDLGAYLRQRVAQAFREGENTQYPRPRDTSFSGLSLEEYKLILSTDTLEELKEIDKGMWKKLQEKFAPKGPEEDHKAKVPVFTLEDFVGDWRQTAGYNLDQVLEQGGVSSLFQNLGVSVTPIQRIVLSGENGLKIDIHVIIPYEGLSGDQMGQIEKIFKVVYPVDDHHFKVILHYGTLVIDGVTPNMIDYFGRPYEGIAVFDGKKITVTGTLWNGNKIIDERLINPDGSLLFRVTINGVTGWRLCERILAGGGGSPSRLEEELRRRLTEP

B1: FireflyLuciferase-P2A-a_alfatag_nano-Cezanne (other)
chain: MEDAKNIKKGPAPFYPLEDGTAGEQLHKAMKRYALVPGTIAFTDAHIEVDITYAEYFEMSVRLAEAMKRYGLNTNHRIVVCSENSLQFFMPVLGALFIGVAVAPANDIYNERELLNSMGISQPTVVFVSKKGLQKILNVQKKLPIIQKIIIMDSKTDYQGFQSMYTFVTSHLPPGFNEYDFVPESFDRDKTIALIMNSSGSTGLPKGVALPHRTACVRFSHARDPIFGNQIIPDTAILSVVPFHHGFGMFTTLGYLICGFRVVLMYRFEEELFLRSLQDYKIQSALLVPTLFSFFAKSTLIDKYDLSNLHEIASGGAPLSKEVGEAVAKRFHLPGIRQGYGLTETTSAILITPEGDDKPGAVGKVVPFFEAKVVDLDTGKTLGVNQRGELCVRGPMIMSGYVNNPEATNALIDKDGWLHSGDIAYWDEDEHFFIVDRLKSLIKYKGYQVAPAELESILLQHPNIFDAGVAGLPDDDAGELPAAVVVLEHGKTMTEKEIVDYVASQVTTAKKLRGGVVFVDEVPKGLTGKLDARKIREILIKAKKGGKIAVTRLKGSGATNFSLLKQAGDVEENPGPRSGTGSSGEVQLQESGGGLVQPGGSLRLSCTASGVTISALNAMAMGWYRQAPGERRVMVAAVSERGNAMYRESVQGRFTVTRDFTNKMVSLQMDNLKPEDTAVYYCHVLEDRVDSFHDYWGQGTQVTVSSGAPGSGPPSFSEGSGGSRTPEKGFSDREPTRPPRPILQRQDDIVQEKRLSRGISHASSSIVSLARSHVSSNGGGGGSNEHPLEMPICAFQLPDLTVYNEDFRSFIERDLIEQSMLVALEQAGRLNWWVSVDPTSQRLLPLATTGDGNCLLHAASLGMWGFHDRDLMLRKALYALMEKGVEKEALKRRWRWQQTQQNKESGLVYTEDEWQKEWNELIKLASSEPRMHLGTNGANCGGVESSEEPVYESLEEFHVFVLAHVLRRPIVVVADTMLRDSGGEAFAPIPFGGIYLPLEVPASQCHRSPLVLAYDQAHFSALVSMEQKENTKEQAVIPLTDSEYKLLPLHFAVDPGKGWEWGKDDSDNVRLASVILSLEVKLHLLHSYMNVKWIPLSSDAQAPLAQ
- fold increase in COX6A2 protein expression (NLuc signal divided by firefly luciferase signal, relative to control) [1]: 1.48 fold
- fold increase in LYRM7 protein expression (NLuc signal divided by firefly luciferase signal, relative to control) [2]: 1.39 fold
- fold increase in UQCC2 protein expression (NLuc signal divided by firefly luciferase signal, relative to control) [3]: 2.87 fold

— patent US20240026330A1 (FLUX THERAPEUTICS, published 2024)
